Assay results as given in US7919091B2, “Lipolysis stimulated receptor (LSR) specific antibodies” (Serono Genetics Institute S.A., priority 1997, dated 2011).

Tests used:
LSR receptors = test system: LSR receptors; parameters: species or system mice; details: mouse
Description: The apparent number of LSR receptors on plasma membranes is measured as previously described (Mann et al., 1995) by estimating the quantity of LDL bound to a plasma membrane preparation. The plasma membranes (100 μg) are incubated with 1 mM oleate; they are then washed three times as indicated above, and then incubated for 1 hour at 37° C. with 40 μg/ml of ^125I-LDL. The quantity of ^125I-LDL bound to the plasma membranes is then determined by counting. The mean is established on 3 measurements per animal for 3 different animals in each of the groups.

[1] = Long-term treatment with leptin on ob/ob mice: weight and postprandial lipemic response; assay type: in vivo
Description: The ob/ob obese mice received a daily injection of either leptin, or of an equivalent volume of sterile PBS, for 30 days. The injected doses are 50 μg/animal from day 0 to day 4, 100 μg/animal from day 5 to day 17, and 150 μg/animal from day 18 to day 30. Several parameters indicated below are measured: • the weight (FIG. 29 A): the change in weight is measured for 6 animals, over the duration of the treatment; • the postprandial lipemic response (FIG. 29 B): it is measured according to the protocol detailed in Example 5 on three animals in each group, on day 29; • the apparent number of LSR receptors (FIG. 29 C): it is measured according to the protocol detailed in Example 4 on three animals in each group, on day 30; • the quantity of LSR mRNA ([…]): it is estimated by Northern blotting as indicated in the protocol of Example 2.

LSR = biological target: T1, LSR (Rattus norvegicus, UniProt Q9WU74); experiment: LSR activity of binding, internalization and degradation of lipoproteins in the presence of leptin, rat hepatocytes; assay type: cell-based; details: increasing concentrations of leptin, difference with/without 500 μM oleate
T1 construct: from tissue; host or cells: rat liver plasma membranes / solubilized rat liver membrane proteins
T1 sequence (Q9WU74 36-593): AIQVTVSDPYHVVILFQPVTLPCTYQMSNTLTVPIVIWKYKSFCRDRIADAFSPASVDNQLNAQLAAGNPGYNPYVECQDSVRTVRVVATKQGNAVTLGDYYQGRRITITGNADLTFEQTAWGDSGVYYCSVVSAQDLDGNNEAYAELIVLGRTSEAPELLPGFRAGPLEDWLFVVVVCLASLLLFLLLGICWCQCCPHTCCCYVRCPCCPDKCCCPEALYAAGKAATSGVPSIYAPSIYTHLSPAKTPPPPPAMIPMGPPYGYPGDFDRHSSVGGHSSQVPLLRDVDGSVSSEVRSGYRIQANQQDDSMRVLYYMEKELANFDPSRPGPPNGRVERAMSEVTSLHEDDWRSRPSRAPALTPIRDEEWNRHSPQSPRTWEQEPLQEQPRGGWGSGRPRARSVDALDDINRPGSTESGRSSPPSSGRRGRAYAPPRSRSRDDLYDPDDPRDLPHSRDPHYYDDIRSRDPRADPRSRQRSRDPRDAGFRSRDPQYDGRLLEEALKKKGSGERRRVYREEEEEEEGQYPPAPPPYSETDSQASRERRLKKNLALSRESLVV
T1 sequence (Q9WU74 36-525 isoform Q9WU74-3 limits assumed): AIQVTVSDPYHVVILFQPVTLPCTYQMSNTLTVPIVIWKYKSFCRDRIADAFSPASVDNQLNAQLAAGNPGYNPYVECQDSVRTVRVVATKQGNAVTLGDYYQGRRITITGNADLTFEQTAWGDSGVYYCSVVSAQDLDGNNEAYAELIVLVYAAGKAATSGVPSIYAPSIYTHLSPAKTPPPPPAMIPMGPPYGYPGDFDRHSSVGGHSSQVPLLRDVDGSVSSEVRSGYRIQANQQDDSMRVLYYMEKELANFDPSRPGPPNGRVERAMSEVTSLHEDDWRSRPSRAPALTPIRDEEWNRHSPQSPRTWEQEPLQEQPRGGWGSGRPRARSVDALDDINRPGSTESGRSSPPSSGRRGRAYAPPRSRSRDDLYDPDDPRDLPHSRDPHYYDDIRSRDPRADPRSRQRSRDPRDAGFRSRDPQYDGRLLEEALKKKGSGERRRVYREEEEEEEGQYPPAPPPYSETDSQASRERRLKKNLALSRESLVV
Description: Rat hepatocytes in primary culture are incubated at 37° C. for 30 min with an increasing concentration of leptin, and then incubated at 37° C. for 4 hours with either 50 μg/ml of ^125I-LDL (specific activity: 209 cpm/ng) or 50 μg/ml of ^125I-VLDL (specific activity: 157 cpm/ng) in the absence or in the presence of 500 μM oleate. The cells are then washed and the quantities of ^125I-lipoproteins bound, incorporated and degraded are measured as described above in Example 1 (Bihain and Yen, 1992). The results shown in FIG. 23 represent the differences obtained between the cells incubated with or without oleate. Each point represents the mean of 3 measurements. The standard deviation for each point is included in the symbol.

[2] = Postprandial lipemic response in mice after a high-fat meal; assay type: in vivo; details: 50 μg leptin i.v. with test meal; ob/ob, db/db and control mice
Description: Control, ob/ob and db/db mice, starved since the day before, are force-fed with a meal which is very high in fat [60% fat (37% saturated, 27% monounsaturated and 36% polyunsaturated fatty acids), 20% protein and 20% carbohydrate] providing 56 kcal of energy/kg of the weight of the animal. Immediately after the meal (time=0 hour), the mice are injected intravenously with 200 μl of physiological saline solution. At various times, 20 μl of blood are collected via the caudal vein in tubes containing 90 μg of disodium EDTA, and after separating the plasma by centrifugation, the plasma concentration of triglyceridemia is determined with the aid of an enzymatic assay kit. Each point on the curves presented corresponds to the mean with standard deviation obtained for 3 measurements per animal and for 3 different animals.
The procedure is the same as above, except that immediately after the meal (time=0 hour), the mice are injected intravenously with either 200 μl of physiological saline solution, or 200 μl of the same solution containing 50 μg of murine recombinant leptin.
ob/ob mice, starved since the day before, are force-fed with a meal identical to that described above. […] Blood is collected between 2 and 3 hours after the meal and the plasma concentration of triglycerides (TG) is measured. […]

binding, internalization and degradation of VLDLs and LDLs (LSR): increases
B1: leptin: mouse recombinant leptin with hexahistidine end, expressed in E. coli (protein, UniProt P41160 22-167, looked up)
Leptin: VPIQKVQDDTKTLIKTIVTRINDISHTQSVSAKQRVTGLDFIPGLHPILSLSKMDQTLAVYQQVLTSLPSQNVLQIANDLENLRDLLHLLAFSKSCSLPQTSGLQKPESLDGVLEASLYSTEVVALSRLQGSLQDILQQLDVSPEC
modifications: hexahistidine tag
notes: mouse recombinant leptin with hexahistidine end, expressed in E. coli
apparent number of LSR receptors expressed at the surface of the hepatocytes in vivo (LSR receptors): increase | weight ([1]; daily leptin injection over 30 days): very significant loss of weight | postprandial lipemic response ([1]; day 29 of leptin treatment): clear reduction | postprandial lipemic response (plasma triglycerides) [2]: reduce
